In patent US7662583B2, “Bioreactor containing cells expressing glycosyltransferase nucleic acids isolatable from Arabidopsis” (The University of York, priority 2003, dated 2010):

B1: UGT73B2: Arabidopsis recombinant glycosyltransferase (protein, UniProt Q94C57 1-483, looked up)
UDP-glucosyl transferase 73B2: MGSDHHHRKLHVMFFPFMAYGHMIPTLDMAKLFSSRGAKSTILTTSLNSKILQKPIDTFKNLNPGLEIDIQIFNFPCVELGLPEGCENVDFFTSNNNDDKNEMIVKFFFSTRFFKDQLEKLLGTTRPDCLIADMFFPWATEAAGKFNVPRLVFHGTGYFSLCAGYCIGVHKPQKRVASSSEPFVIPELPGNIVITEEQIIDGDGESDMGKFMTEVRESEVKSSGVVLNSFYELEHDYADFYKSCVQKRAWHIGPLSVYNRGFEEKAERGKKANIDEAECLKWLDSKKPNSVIYVSFGSVAFFKNEQLFEIAAGLEASGTSFIWVVRKTKDDREEWLPEGFEERVKGKGMIIRGWAPQVLILDHQATGGFVTHCGWNSLLEGVAAGLPMVTWPVGAEQFYNEKLVTQVLRTGVSVGASKHMKVMMGDFISREKVDKAVREVLAGEAAEERRRRAKKLAAMAKAAVEEGGSSFNDLNSFMEEFSS
B2: UGT71C5: Arabidopsis recombinant glycosyltransferase (protein, UniProt Q9FE68 1-480, looked up)
UDP-glycosyltransferase 71C5: MKTAELIFVPLPETGHLLSTIEFGKRLLNLDRRISMITILSMNLPYAPHADASLASLTASEPGIRIISLPEIHDPPPIKLLDTSSETYILDFIHKNIPCLRKTIQDLVSSSSSSGGGSSHVAGLILDFFCVGLIDIGREVNLPSYIFMTSNFGFLGVLQYLPERQRLTPSEFDESSGEEELHIPAFVNRVPAKVLPPGVFDKLSYGSLVKIGERLHEAKGILVNSFTQVEPYAAEHFSQGRDYPHVYPVGPVLNLTGRTNPGLASAQYKEMMKWLDEQPDSSVLFLCFGSMGVFPAPQITEIAHALELIGCRFIWAIRTNMAGDGDPQEPLPEGFVDRTMGRGIVCSWAPQVDILAHKATGGFVSHCGWNSVQESLWYGVPIATWPMYAEQQLNAFEMVKELGLAVEIRLDYVADGDRVTLEIVSADEIATAVRSLMDSDNPVRKKVIEKSSVARKAVGDGGSSTVATCNFIKDILGDHF
B3: UGT71B5: Arabidopsis recombinant glycosyltransferase (protein, UniProt O23382 1-478, looked up)
UDP-glycosyltransferase 71B5: MKIELVFIPLPGIGHLRPTVKLAKQLIGSENRLSITIIIIPSRFDAGDASACIASLTTLSQDDRLHYESISVAKQPPTSDPDPVPAQVYIEKQKTKVRDAVAARIVDPTRKLAGFVVDMFCSSMIDVANEFGVPCYMVYTSNATFLGTMLHVQQMYDQKKYDVSELENSVTELEFPSLTRPYPVKCLPHILTSKEWLPLSLAQARCFRKMKGILVNTVAELEPHALKMFNINGDDLPQVYPVGPVLHLENGNDDDEKQSEILRWLDEQPSKSVVFLCFGSLGGFTEEQTRETAVALDRSGQRFLWCLRHASPNIKTDRPRDYTNLEEVLPEGFLERTLDRGKVIGWAPQVAVLEKPAIGGFVTHCGWNSILESLWFGVPMVTWPLYAEQKVNAFEMVEELGLAVEIRKYLKGDLFAGEMETVTAEDIERAIRRVMEQDSDVRNNVKEMAEKCHFALMDGGSSKAALEKFIQDVIENMD
B4: UGT78D1: Arabidopsis recombinant glycosyltransferase (protein, UniProt Q9S9P6 1-453, looked up)
Flavonol-3-O-rhamnosyltransfer …: MTKFSEPIRDSHVAVLAFFPVGAHAGPLLAVTRRLAAASPSTIFSFFNTARSNASLFSSDHPENIKVHDVSDGVPEGTMLGNPLEMVELFLEAAPRIFRSEIAAAEIEVGKKVTCMLTDAFFWFAADIAAELNATWVAFWAGGANSLCAHLYTDLIRETIGLKDVSMEETLGFIPGMENYRVKDIPEEVVFEDLDSVFPKALYQMSLALPRASAVFISSFEELEPTLNYNLRSKLKRFLNIAPLTLLSSTSEKEMRDPHGCFAWMGKRSAASVAYISFGTVMEPPPEELVAIAQGLESSKVPFVWSLKEKNMVHLPKGFLDRTREQGIVVPWAPQVELLKHEAMGVNVTHCGWNSVLESVSAGVPMIGRPILADNRLNGRAVEVVWKVGVMMDNGVFTKEGFEKCLNDVFVHDDGKTMKANAKKLKEKLQEDFSMKGSSLENFKILLDEIVKV
B5: UGT72B3: Arabidopsis recombinant glycosyltransferase (protein, UniProt Q9LNI1 1-481, looked up)
UDP-glycosyltransferase 72B3: MADGNTPHVAIIPSPGIGHLIPLVELAKRLLDNHGFTVTFIIPGDSPPSKAQRSVLNSLPSSIASVFLPPADLSDVPSTARIETRISLTVTRSNPALRELFGSLSAEKRLPAVLVVDLFGTDAFDVAAEFHVSPYIFYASNANVLTFLLHLPKLDETVSCEFRELTEPVIIPGCVPITGKDFVDPCQDRKDESYKWLLHNVKRFKEAEGILVNSFVDLEPNTIKIVQEPAPDKPPVYLIGPLVNSGSHDADVNDEYKCLNWLDNQPFGSVLYVSFGSGGTLTFEQFIELALGLAESGKRFLWVIRSPSGIASSSYFNPQSRNDPFSFLPQGFLDRTKEKGLVVGSWAPQAQILTHTSIGGFLTHCGWNSSLESIVNGVPLIAWPLYAEQKMNALLLVDVGAALRARLGEDGVVGREEVARVVKGLIEGEEGNAVRKKMKELKEGSVRVLRDDGFSTKSLNEVSLKWKAHQRKIDQEQESFL
B6: UGT78D3: Arabidopsis recombinant glycosyltransferase, FIG. 6 (protein, UniProt Q9LFK0 1-459, looked up)
UDP-glycosyltransferase 78D3: MAKPSQPTRDSHVAVLVFPFGTHAAPLLAVTCRLATAAPSTVFSFFSTARSNSSLLSSDIPTNIRVHNVDDGVPEGFVLTGNPQHAVELFLEAAPEIFRREIKAAETEVGRKFKCILTDAFLWLAAETAAAEMKASWVAYYGGGATSLTAHLYTDAIRENVGVKEVGERMEETIGFISGMEKIRVKDTQEGVVFGNLDSVFSKTLHQMGLALPRATAVFINSFEELDPTFTNDFRSEFKRYLNIGPLALLSSPSQTSTLVHDPHGCLAWIEKRSTASVAYIAFGRVATPPPVELVAIAQGLESSKVPFVWSLQEMKMTHLPEGFLDRTREQGMVVPWAPQVELLNHEAMGVFVSHGGWNSVLESVSAGVPMICRPIFGDHAINARSVEAVWEIGVTISSGVFTKDGFEESLDRVLVQDDGKKMKVNAKKLEELAQEAVSTKGSSFENFGGLLDEVVNFG

assay: UGT enzyme reaction with quercetin (recombinant UGTs, HPLC); format: biochemical, Arabidopsis; settings: quercetin glucosylated at 3-OH; 0.5 mM quercetin, 5 mM UDP-glucose, 30° C.
Procedure: The assay mix (200 μl) contained 2 μg of recombinant protein, 100 mM Tris-HCl, pH 7.0, 5 mM UDP-glucose 1.4 mM 2-mercaptoethanol, and 0.5 mM of quercetin. The reaction was carried out at 30° C. for 1 h, and was quick-frozen and stored at −20° C. prior to the reverse-phase HPLC analysis
Reverse-phase HPLC (SpectraSYSTEM HPLC systems and UV6000LP Photodiode Array Detector, ThermoQuest) analysis was carried using a Columbus 5μ C18 column (250×4.60 mm, PHENOMENEX). Quercetin glucosides were separated from the aglycone by a linear gradient of 10-75% acetonitrile in H2O (all solution contained 0.1% trifluoroacetic acid) at 1 ml/mm over 20 mm and monitored at 370 nm. Cytokinin glucosides were separated from their aglycone by a liner gradient of 10-100% methanol in H2O (for N6-isopentenyladenine (iP), N6-benzyladenine and kinetin) or 10-60% methanol in H2O (for trans-zeatin and dihydrozeatin) at 1 ml/min over 20 mm. All solution contained 0.25% acetic acid and 0.04% triethylamine, trifluoroacetic acid. The separation was monitored at 206 nm and 252 nm. The identity of the products was confirmed by comparison with authentic gluco sides.
The activity of Arabidopsis recombinant UGTs towards quercetin was determined using the platform developed previously^15.

Row | Molecule | Specific activity (nkat/mg protein) 3-O-glc
1 | B1 | 0.92 nkat/mg protein
2 | B2 | 0.33 nkat/mg protein
3 | B3 | 0.26 nkat/mg protein
4 | B4 | 0.24 nkat/mg protein
5 | B5 | 0.20 nkat/mg protein
6 | B6 | 0.16 nkat/mg protein

same assay, conditions: quercetin glucosylated at 3′-OH; 0.5 mM quercetin, 5 mM UDP-glucose, 30° C.

Row | Molecule | Specific activity (nkat/mg protein) 3′-O-glc
7 | B1 | — (Activity lower than 0.02 nkat/mg protein has been considered as trace activity and is not shown in the Table.)
8 | B2 | — (Activity lower than 0.02 nkat/mg protein has been considered as trace activity and is not shown in the Table.)
9 | B3 | — (Activity lower than 0.02 nkat/mg protein has been considered as trace activity and is not shown in the Table.)
10 | B4 | — (Activity lower than 0.02 nkat/mg protein has been considered as trace activity and is not shown in the Table.)
11 | B5 | — (Activity lower than 0.02 nkat/mg protein has been considered as trace activity and is not shown in the Table.)
12 | B6 | — (Activity lower than 0.02 nkat/mg protein has been considered as trace activity and is not shown in the Table.)

same assay, conditions: quercetin glucosylated at 4′-OH; 0.5 mM quercetin, 5 mM UDP-glucose, 30° C.

Row | Molecule | Specific activity (nkat/mg protein) 4′-O-glc
13 | B1 | — (Activity lower than 0.02 nkat/mg protein has been considered as trace activity and is not shown in the Table.)
14 | B2 | — (Activity lower than 0.02 nkat/mg protein has been considered as trace activity and is not shown in the Table.)
15 | B3 | — (Activity lower than 0.02 nkat/mg protein has been considered as trace activity and is not shown in the Table.)
16 | B4 | — (Activity lower than 0.02 nkat/mg protein has been considered as trace activity and is not shown in the Table.)
17 | B5 | — (Activity lower than 0.02 nkat/mg protein has been considered as trace activity and is not shown in the Table.)
18 | B6 | — (Activity lower than 0.02 nkat/mg protein has been considered as trace activity and is not shown in the Table.)

same assay, conditions: quercetin glucosylated at 7-OH; 0.5 mM quercetin, 5 mM UDP-glucose, 30° C.

Row | Molecule | Specific activity (nkat/mg protein) 7-O-glc
19 | B1 | — (Activity lower than 0.02 nkat/mg protein has been considered as trace activity and is not shown in the Table.)
20 | B2 | — (Activity lower than 0.02 nkat/mg protein has been considered as trace activity and is not shown in the Table.)
21 | B3 | — (Activity lower than 0.02 nkat/mg protein has been considered as trace activity and is not shown in the Table.)
22 | B4 | — (Activity lower than 0.02 nkat/mg protein has been considered as trace activity and is not shown in the Table.)
23 | B5 | — (Activity lower than 0.02 nkat/mg protein has been considered as trace activity and is not shown in the Table.)
24 | B6 | — (Activity lower than 0.02 nkat/mg protein has been considered as trace activity and is not shown in the Table.)
